In US8586570B2, “Sox-based kinase sensor” (Massachusetts Institute of Technology, priority 2006, dated 2013):

Experiments:
Type in all cases: biochemical
PKCβI = PKCβI (Homo sapiens, UniProt P05771); assay: Cross-reactivity of PKCα-S10 with PKC isozymes; details: peptide 1 μM, isozyme 2 ng
Description: (§1) With the kinetic parameters at hand it is possible to test the cross-reactivity of PKCα-S10 with PKC isozymes. In 12 separate reactions PKCα-S10 (1 μM) is subjected to phosphorylation with PKCα, PKCβI, PKCβII, PKCγ, PKCδ, PKCε, PKCζ, PKCη, PKCθ, PKCι, PKCμ and PKCν (2 ng).

PKCβII = PKCβII (Homo sapiens, UniProt P05771); assay: Cross-reactivity of PKCα-S10 with PKC isozymes; details: peptide 1 μM, isozyme 2 ng
Description: as §1

PKCθ = PKCθ (Homo sapiens, UniProt Q04759); assay: Cross-reactivity of PKCα-S10 with PKC isozymes; details: peptide 1 μM, isozyme 2 ng
Description: as §1

PKCγ = PKCγ (Homo sapiens, UniProt P05129); assay: Cross-reactivity of PKCα-S10 with PKC isozymes; details: peptide 1 μM, isozyme 2 ng
Description: as §1

PKCζ = target: T1, PKCζ (Homo sapiens, UniProt Q05513); assay: Cross-reactivity of PKCα-S10 with PKC isozymes; details: peptide 1 μM, isozyme 2 ng
T1 sequence (Q05513 1-592): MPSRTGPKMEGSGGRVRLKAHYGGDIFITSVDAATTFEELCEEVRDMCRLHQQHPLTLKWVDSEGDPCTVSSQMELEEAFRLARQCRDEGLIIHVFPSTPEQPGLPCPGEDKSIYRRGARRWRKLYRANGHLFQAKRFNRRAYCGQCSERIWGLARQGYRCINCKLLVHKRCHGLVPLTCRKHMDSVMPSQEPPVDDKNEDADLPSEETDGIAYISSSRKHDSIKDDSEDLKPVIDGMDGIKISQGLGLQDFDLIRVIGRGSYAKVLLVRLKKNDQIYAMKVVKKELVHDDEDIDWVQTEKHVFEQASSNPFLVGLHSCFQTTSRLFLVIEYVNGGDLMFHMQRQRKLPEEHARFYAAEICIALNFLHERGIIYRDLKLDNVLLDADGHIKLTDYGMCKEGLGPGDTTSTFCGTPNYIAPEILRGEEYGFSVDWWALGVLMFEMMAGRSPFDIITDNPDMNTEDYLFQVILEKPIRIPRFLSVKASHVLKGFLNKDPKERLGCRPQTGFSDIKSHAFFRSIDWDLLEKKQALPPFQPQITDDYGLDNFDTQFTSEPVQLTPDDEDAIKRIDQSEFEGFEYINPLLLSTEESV
Description: as §1

PKCη = PKCη (Homo sapiens, UniProt P24723); assay: Cross-reactivity of PKCα-S10 with PKC isozymes; details: peptide 1 μM, isozyme 2 ng
Description: as §1

PKCα = PKCα (Homo sapiens, UniProt P17252); assay: Kinetic parameters of the peptides with PKCα (continuous fluorescence assay)
Description: To solve for enzyme kinetic parameters for this reaction, determination of the initial rate of product formation from the increase in fluorescence intensity is necessary. With this sensor, a correction for the decrease in fluorescence intensity due to the starting material being consumed is needed to determine the rate of product formation from the initial slope. The fluorescence intensity at any given point can be determined from the following equation: I(t)=fSs(t)+fPP(t) (1) where I(t) is the fluorescence intensity, S(t) is the amount of substrate in μM, P(t) is the amount of product in μM, fS is the fluorescence intensity per μM of substrate, and fP is fluorescence intensity per μM of product. The amount of substrate and product at any given point are related by: S(t)+P(t)=S0 (2) where S0 is the initial amount of substrate. Substitution of (2) into (1) followed by rearrangement, yields:
[formula] The initial slope of the reaction, dI(t)/dt, was measured within the first 5% of substrate turnover. The constants fP and fS were calculated from the slope of a line of fluorescence intensity versus concentration of P and S, respectively. A linear fit of a Hanes plot ([S]/V vs. […]) was used to find Km and Vmax.
For in vitro applications, the concentration of kinase can range from about 0.5 nM to about 1 μM, typically not more than about 500 nM, and preferably not more than about 250 nM. The concentrations of sensor can vary, but usually ranges between about 0.01 μM to 0.1 mM. Adenosine 5′-triphosphate (ATP) is the preferred source of phosphate, in stock solutions of about 10-100 mM. Because most kinases have Km values for ATP in the range of about 10-150 μM, saturating concentrations of ATP are used to arrive at values of Km and Vmax for the substrates. For in vivo applications, when the sensor is internalized into a cell, sufficient kinases, Mg^2+ and phosphate sources exist in the cytosol. For in vivo sensing, a cellular internalization sequence can be included in the sensor design. Suitable cellular internalization sequences include Penetratins, HIV-Tat domains and poly-arginine sequences (Lindgren, M. et al. Trends Pharmacol. Sci. 2000, 21, 99-103; Wadia, J. S. et al. Curr Opin. Biotech. 2002, 13, 52-56; Carrigan, C. N. Analyt. Biochem. 2005, 341, 290-298).
For applications in which the kinase is dependent on cofactors, a source of cofactor is also included in the sample. For example, for PKC, sources of Ca^2+, phospholipid and diacylglycerol are needed.
Fluorescence experiments were performed on a Fluoromax 3 from Jobin Yvon. 5 nm emission and excitation slit widths were used. For all experiments, an excitation wavelength of 360 nm was used. Enzyme assays were performed by monitoring emission at 485 nm.

Sequence of PKCβII (P05771 1-673 isoform P05771-2): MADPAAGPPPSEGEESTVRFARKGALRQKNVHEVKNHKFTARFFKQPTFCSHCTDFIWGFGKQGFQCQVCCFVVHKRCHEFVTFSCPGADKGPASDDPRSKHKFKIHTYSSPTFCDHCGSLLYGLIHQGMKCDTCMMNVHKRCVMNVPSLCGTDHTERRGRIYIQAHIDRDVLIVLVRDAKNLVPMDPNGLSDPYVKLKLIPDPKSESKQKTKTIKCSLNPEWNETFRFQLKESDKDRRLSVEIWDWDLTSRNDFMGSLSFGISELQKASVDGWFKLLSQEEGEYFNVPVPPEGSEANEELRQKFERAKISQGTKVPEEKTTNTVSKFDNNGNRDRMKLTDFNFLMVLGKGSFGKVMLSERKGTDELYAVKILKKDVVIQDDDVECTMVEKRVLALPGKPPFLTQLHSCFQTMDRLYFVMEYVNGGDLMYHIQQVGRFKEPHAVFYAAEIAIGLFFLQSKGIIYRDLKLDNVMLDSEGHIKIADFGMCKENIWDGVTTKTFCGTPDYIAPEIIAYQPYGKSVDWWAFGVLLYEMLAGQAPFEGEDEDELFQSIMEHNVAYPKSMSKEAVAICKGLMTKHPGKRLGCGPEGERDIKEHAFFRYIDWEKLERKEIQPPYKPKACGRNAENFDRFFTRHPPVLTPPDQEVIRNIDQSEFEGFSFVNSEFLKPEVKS
Sequence of PKCθ (Q04759 whole entry): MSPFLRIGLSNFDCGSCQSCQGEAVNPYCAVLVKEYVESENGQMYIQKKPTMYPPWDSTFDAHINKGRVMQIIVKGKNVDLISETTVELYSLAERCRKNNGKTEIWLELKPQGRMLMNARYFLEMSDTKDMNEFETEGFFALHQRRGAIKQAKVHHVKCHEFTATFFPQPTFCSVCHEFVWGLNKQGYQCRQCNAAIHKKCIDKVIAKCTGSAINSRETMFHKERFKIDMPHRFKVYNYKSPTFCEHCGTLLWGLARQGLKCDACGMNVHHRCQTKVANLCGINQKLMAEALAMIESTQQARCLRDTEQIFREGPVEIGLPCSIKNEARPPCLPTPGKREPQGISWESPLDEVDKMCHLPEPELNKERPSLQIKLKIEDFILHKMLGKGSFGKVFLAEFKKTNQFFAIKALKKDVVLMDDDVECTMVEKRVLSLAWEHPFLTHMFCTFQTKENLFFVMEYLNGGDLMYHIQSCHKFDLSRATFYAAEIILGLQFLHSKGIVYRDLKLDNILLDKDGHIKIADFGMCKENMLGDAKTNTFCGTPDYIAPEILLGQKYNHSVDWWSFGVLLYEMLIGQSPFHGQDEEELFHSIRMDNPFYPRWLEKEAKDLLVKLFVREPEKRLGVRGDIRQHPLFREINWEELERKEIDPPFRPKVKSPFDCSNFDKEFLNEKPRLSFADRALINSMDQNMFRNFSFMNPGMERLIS
Sequence of PKCη (P24723 whole entry): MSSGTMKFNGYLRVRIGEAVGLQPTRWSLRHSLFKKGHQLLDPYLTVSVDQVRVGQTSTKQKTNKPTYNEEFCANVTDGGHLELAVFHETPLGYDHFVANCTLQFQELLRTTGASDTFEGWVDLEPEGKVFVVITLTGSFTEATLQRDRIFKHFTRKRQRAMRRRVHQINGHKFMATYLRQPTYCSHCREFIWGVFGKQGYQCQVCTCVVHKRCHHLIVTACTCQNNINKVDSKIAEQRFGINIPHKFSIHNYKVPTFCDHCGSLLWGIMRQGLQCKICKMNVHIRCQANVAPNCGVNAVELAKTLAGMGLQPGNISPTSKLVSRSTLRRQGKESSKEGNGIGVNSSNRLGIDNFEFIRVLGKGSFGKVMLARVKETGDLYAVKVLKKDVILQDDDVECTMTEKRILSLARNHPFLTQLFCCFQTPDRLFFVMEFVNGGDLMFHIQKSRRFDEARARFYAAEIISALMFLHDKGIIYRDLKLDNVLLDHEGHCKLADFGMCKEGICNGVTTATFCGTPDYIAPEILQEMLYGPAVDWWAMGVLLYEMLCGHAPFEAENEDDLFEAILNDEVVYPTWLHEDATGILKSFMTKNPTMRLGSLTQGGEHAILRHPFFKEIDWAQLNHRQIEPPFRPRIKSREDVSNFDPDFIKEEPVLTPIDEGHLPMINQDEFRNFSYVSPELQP
Sequence of PKCβI (P05771 whole entry): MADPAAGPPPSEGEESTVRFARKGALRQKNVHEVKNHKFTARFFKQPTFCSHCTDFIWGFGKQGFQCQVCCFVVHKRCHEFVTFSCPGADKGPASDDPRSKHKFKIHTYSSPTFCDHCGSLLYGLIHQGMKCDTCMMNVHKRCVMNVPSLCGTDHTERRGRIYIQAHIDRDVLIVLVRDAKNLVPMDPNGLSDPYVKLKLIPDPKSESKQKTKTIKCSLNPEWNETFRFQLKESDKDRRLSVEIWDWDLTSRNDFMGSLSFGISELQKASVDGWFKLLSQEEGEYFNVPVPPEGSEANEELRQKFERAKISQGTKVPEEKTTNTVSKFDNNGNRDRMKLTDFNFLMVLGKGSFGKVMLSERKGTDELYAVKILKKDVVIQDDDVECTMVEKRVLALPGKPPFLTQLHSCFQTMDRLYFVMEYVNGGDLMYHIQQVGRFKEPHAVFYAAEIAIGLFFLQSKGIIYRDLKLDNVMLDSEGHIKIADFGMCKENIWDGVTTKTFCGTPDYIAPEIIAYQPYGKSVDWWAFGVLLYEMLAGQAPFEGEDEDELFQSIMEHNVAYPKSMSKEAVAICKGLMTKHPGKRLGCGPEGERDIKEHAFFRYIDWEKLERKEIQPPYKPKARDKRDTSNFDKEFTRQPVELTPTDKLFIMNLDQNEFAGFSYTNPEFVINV

With “Ac-RRR-C(Sox)-ASFRRKA-CONH2 [PKCα-S10(P10), Sox chemosensor with extended recognition domain for PKCα]” the “activity of isozyme on peptide compared with PKCα” value (from here on “activity … compared with PKCα”) (PKCβI) was “slightly more active than PKCα”, the “activity … compared with PKCα” value (PKCβII) was “comparable activities to that of PKCα” and the “activity … compared with PKCα” value (PKCθ) was “slightly more active than PKCα”. For the same substance, the “activity … compared with PKCα” value (PKCγ) was “comparable activities to that of PKCα”, the “activity of isozyme on peptide” value (PKCζ) was “very little activity” and the “activity of isozyme on peptide” value (PKCη) was “very little activity”. The “selectivity for PKCα” value (PKCα; as determined by kinetic parameters, compared with PKCα-S1) was “much more selective for PKCα”, the Km (PKCα; with PKCα) was 0.12 ± 0.018 µM and the Vmax (PKCα; with PKCα) was 2.2 ± 0.25 µmol/min/mg.
